Patent US20050079156A1, “Method of treating endometreosis” (priority 2001, published 2005)
One block for each molecule: values may come before it.

Tests used:
Type in all cases: cell-based
human adipocytes = assay: Estradiol production in cultured human adipocytes (estradiol in conditioned media); details: for estradiol production stimulated by a mixture of 6 cytokines: mix of IL-1b, TNF-α, IL-6, IL-8, IL-11, oncostatin M 0.01 ug/ml each, IFN-α 1 ug/ml, IFN-b 2 ug/ml, FIG. 4; for estradiol production (effect of cytokine alone): human adipocytes, different doses of IL-1α and IL-1β
Description: Human subcutaneous cultured adipocytes, catalog nos. SP-1012, SP-1024, SP-1096, SP-75, or SP-25 were purchased from Zen-Bio, Inc. (Research Triangle Park, N.C.) and cultured according to the manufacturer's instructions.
Human adipocytes (approximately 100,000 cells/well) were cultured for 24 hr in the presence or absence of different doses of IL-1α and IL-1β (as indicated) with and without IFN-γ (0.1 ug/ml, IL-1α, IL-1β and IFN-γ were purchased from R&D). The amount of estradiol release in the conditioned media was determined by radioimmunoassay for estradiol using the Active™ Estradiol EIA kit according to the manufacturer's instructions (catalog no. DSL-10-4300, Diagnostic Systems Laboratories, Inc., Webster, Tex.). Each value represents the mean±S.E.M. of triplicate wells.
Human adipocytes (100,000 cells/well) were cultured for 72 hr with and without increasing doses of IFN-γ (0.0001 to 1 ug/ml, purchased from R&D). The amount of estradiol in the conditioned media was determined by radioimmunoassay as described in Example 1. Each value represents the mean±S.E.M. of triplicate wells.
Human adipocytes (100,000 cells/well) were cultured for 72 hr in the presence or absence of different doses of the mix Cytokines (IL-1b, TNF-α, IL-6, IL-8, IL-11 and oncostatin M, 0.01 ug/ml/each—dilution as indicated) with and without IFN-γ (0.1 ug/ml), […] (1 ug/ml) or IFN-b (2 ug/ml). IFN-α was purchased from PBL while IFN-b was obtained from Serono. The amount of estradiol release in the conditioned media was determined by radioimmunoassay as described in Example 1. Each value represents the mean±S.E.M. of triplicate wells.
(§1) Human adipocytes (100,000 cells/well) obtained from Zen-Bio,Inc were cultured for 48 hr in the presence or absence of different doses of the cytokine mix (dilution as indicated) with and without IFN-γ (0.1 ug/ml). The amount of estradiol release in the conditioned media was determined by radioimmunoassay as described in Example 1. Each value represents the mean±S.E.M. of triplicate wells.
as §1, with “Zen-Bio, Inc” for “Zen-Bio,Inc”, “72” for “48”, “LPS (as” for “the cytokine mix (dilution as”, “ug/ml, LPS were purchased from Sigma).” for “ug/ml).”
as §1, with “Zen-Bio, Inc” for “Zen-Bio,Inc”, “the” for “the cytokine”, “mix LPS, PMA and PGE2” for “mix”, “ug/ml). IFN-γ was added at the same as the mix, 8 hr or 24 hr after the mix of the LPS, PMA and PGE2 which were purchased from Sigma.” for “ug/ml).”

aromatase mRNA = assay: Aromatase mRNA expression in human adipocytes by RT-PCR; details: for aromatase mRNA expression (induction by cytokine alone): cytokine 0.1 ug/ml
Description: Adipocyte cultures were treated with IL-1-β, IFN-γ, TNF-α, and combinations of IL-1-β, and IFN-γ and TNF-α and IFN-γ. Subsequently, total RNA from cultured adipocytes was isolated using conventional methods. The reverse transcriptase polymerase chain reaction (RT-PCR) was performed using aromatase specific primers. The amplified aromatase cDNA fragments produced by RT-PCR were separated on an agarose gel. As shown in the FIG. 3, IL-1 and TNF alone induce transcription of aromatase mRNA compared to untreated control. However, the administration of IFN-γ inhibits the transcription of aromatase mRNA when given together IL-1 or TNF.
Human adipocytes (from one flask with 100% confluence) obtained from Zen-Bio,Inc were cultured for 72 hr in the presence or absence of 0.1 ug/ml of different Cytokines as indicated with and without IFN-γ (0.1 ug/ml, all Cytokines were purchased from R&D except FAS ligand, TRAIL and OX40 Ligands were obtained from Alexis). Total RNA was extracted for RT-PCR (30 cycles with 50 ng RNA/each sample) using human aromatase and GAPDH specific oligos (20 mers).

human preadipocytes = assay: Cytokine stimulation of estradiol production in human preadipocytes; details: 72 hr, FIG. 9
Description: […] The amount of estradiol release in the conditioned media was determined by radioimmunoassay for estradiol using the Active™ Estradiol EIA kit according to the manufacturer's instructions (catalog no. DSL-10-4300, Diagnostic Systems Laboratories, Inc., Webster, Tex.). Each value represents the mean±S.E.M. of triplicate wells. Similar results were reproducible in 10 additional experiments using cells derived from either male or female patients.

Molecule: IFN-α
estradiol production stimulated by a mixture of 6 cytokines (human adipocytes; 72 hr, IFN-γ 0.1 ug/ml): do not inhibit

Molecule: IL-1β: interleukin-1 beta, cytokine purchased from R&D
transcription of aromatase mRNA (cytokine alone compared to untreated control) (aromatase mRNA; adipocyte cultures, FIG. 3): induce | aromatase mRNA expression (induction by cytokine alone) (aromatase mRNA; 72 hr, FIG. 8): induce | estradiol production (effect of cytokine alone) (human adipocytes; 24 hr, FIG. 1): significantly increased estradiol production

Molecule: GH: human growth hormone
estradiol production (stimulation by cytokine) (human preadipocytes; cytokine 5 ug/ml): stimulate

Molecule: IGF-1: insulin growth factor-1
estradiol production (stimulation by cytokine) (human preadipocytes; cytokine 5 ug/ml): stimulate

Molecule: IL-8: interleukin-8, cytokine
estradiol production (stimulation by cytokine) (human preadipocytes; cytokine 0.5 ug/ml): stimulate

B2: OSM: oncostatin M, cytokine (protein, UniProt P13725 26-221, looked up)
Oncostatin-M: AAIGSCSKEYRVLLGQLQKQTDLMQDTSRLLDPYIRIQGLDVPKLREHCRERPGAFPSEETLRGLGRRGFLQTLNATLGCVLHRLADLEQRLPKAQDLERSGLNIEDLEKLQMARPNILGLRNNIYCMAQLLDNSDTAEPTKAGRGASQPPTPTPASDAFQRKLEGCRFLHGYHRFMHSVGRVFSKWGESPNRSRR
estradiol production (stimulation by cytokine) (human preadipocytes; cytokine 0.5 ug/ml): stimulate

B4: IL-1α: interleukin-1-alpha, cytokine purchased from R&D (protein, UniProt P01583 113-271, looked up)
Interleukin-1 alpha: SAPFSFLSNVKYNFMRIIKYEFILNDALNQSIIRANDQYLTAAALHNLDEAVKFDMGAYKSSKDDAKITVILRISKTQLYVTAQDEDQPVLLKEMPEIPKTITGSETNLLFFWETHGTKNYFTSVAHPNLFIATKQDYWVCLAGGPPSITDFQILENQA
estradiol production (effect of cytokine alone) (human adipocytes; 24 hr, FIG. 1): significantly increased estradiol production

Further lines, with some results ahead:

aromatase mRNA expression (induction by cytokine alone) (aromatase mRNA; 72 hr, FIG. 8): induce
Molecule: LIF: leukemia inhibitory factor, cytokine

aromatase mRNA expression (induction by cytokine alone) (aromatase mRNA; 72 hr, FIG. 8): induce
Molecule: IL-6: interleukin-6, cytokine
estradiol production (stimulation by cytokine) (human preadipocytes; cytokine 0.5 ug/ml): stimulate

aromatase mRNA expression (induction by cytokine alone) (aromatase mRNA; 72 hr, FIG. 8): induce
Molecule: TRAIL: tumor necrosis factor-related apoptosis-inducing ligand, obtained from Alexis

aromatase mRNA expression (induction by cytokine alone) (aromatase mRNA; 72 hr, FIG. 8): induce
B1: IL-11: interleukin-11, cytokine (protein, UniProt P20809 22-199, looked up)
Interleukin-11: PGPPPGPPRVSPDPRAELDSTVLLTRSLLADTRQLAAQLRDKFPADGDHNLDSLPTLAMSAGALGALQLPGVLTRLRADLLSYLRHVQWLRRAGGSSLKTLEPELGTLQARLDRLLRRLQLLMSRLALPQPPPDPPAPPLAPPSSAWGGIRAAHAILGGLHLTLDWAVRGLLLLKTRL
estradiol production (stimulation by cytokine) (human preadipocytes; cytokine 0.5 ug/ml): stimulate

constitutive aromatase mRNA (aromatase mRNA; adipocyte cultures, Example 3): Inhibited | transcription of aromatase mRNA when given together IL-1 or TNF (aromatase mRNA; adipocyte cultures, FIG. 3): inhibits | induced expression of aromatase mRNA by TRAIL, OX40, IL-1β, IL-6, IL-11 and LIF (aromatase mRNA; cytokines 0.1 ug/ml, IFN-γ 0.1 ug/ml, 72 hr, FIG. 8): inhibits
B3: IFN-γ: interferon-gamma, recombinant human, purchased from R&D (protein, UniProt P01579 24-161, looked up)
Interferon gamma: QDPYVKEAENLKKYFNAGHSDVADNGTLFLGILKNWKEESDRKIMQSQIVSFYFKLFKNFKDDQSIQKSVETIKEDMNVKFFNSNKKKRDDFEKLTNYSVTDLNVQRKAIHELIQVMAELSPAAKTGKRKRSQMLFRG
estradiol production stimulated by a mixture of 15 cytokines (human adipocytes; 15 cytokines 0.01 ug/ml each, 48 hr, IFN-γ 0.1 ug/ml, FIG. 5): inhibited | LPS stimulated estradiol production (human adipocytes; 72 hr, IFN-γ 0.1 ug/ml, FIG. 6): inhibits | IL-1α and IL-1β induced estradiol production (human adipocytes; IFN-γ 0.1 ug/ml, 24 hr, FIG. 1): inhibits | constitutive estradiol production (human adipocytes; IFN-γ 0.0001 to 1 ug/ml, 72 hr, FIG. 2): dose-dependent inhibitory effect | PMA, LPS and PGE2 stimulated estradiol production (human adipocytes; mix PMA 5 ng/ml, LPS 10 ug/ml, PGE2 10 ug/ml, 48 hr, IFN-γ 0.1 ug/ml added at same time, 8 hr or 24 hr after the mix, FIG. 7): inhibits | estradiol production stimulated by a mixture of 6 cytokines (human adipocytes; 72 hr, IFN-γ 0.1 ug/ml): inhibits

aromatase mRNA expression (induction by cytokine alone) (aromatase mRNA; 72 hr, FIG. 8): induce
B5: OX40L: OX40 Ligand, obtained from Alexis (protein, UniProt P23510 1-183, looked up)
Tumor necrosis factor ligand …: MERVQPLEENVGNAARPRFERNKLLLVASVIQGLGLLLCFTYICLHFSALQVSHRYPRIQSIKVQFTEYKKEKGFILTSQKEDEIMKVQNNSVIINCDGFYLISLKGYFSQEVNISLHYQKDEEPLFQLKKVRSVNSLMVASLTYKDKVYLNVTTDNTSLDDFHVNGGELILIHQNPGEFCVL
